Laboratory results taken from IntAct's records for PubMed 31695625.

Columns and labels:
[1] = target: T1, SLC2A9, Q9NRM0-1
T1 sequence: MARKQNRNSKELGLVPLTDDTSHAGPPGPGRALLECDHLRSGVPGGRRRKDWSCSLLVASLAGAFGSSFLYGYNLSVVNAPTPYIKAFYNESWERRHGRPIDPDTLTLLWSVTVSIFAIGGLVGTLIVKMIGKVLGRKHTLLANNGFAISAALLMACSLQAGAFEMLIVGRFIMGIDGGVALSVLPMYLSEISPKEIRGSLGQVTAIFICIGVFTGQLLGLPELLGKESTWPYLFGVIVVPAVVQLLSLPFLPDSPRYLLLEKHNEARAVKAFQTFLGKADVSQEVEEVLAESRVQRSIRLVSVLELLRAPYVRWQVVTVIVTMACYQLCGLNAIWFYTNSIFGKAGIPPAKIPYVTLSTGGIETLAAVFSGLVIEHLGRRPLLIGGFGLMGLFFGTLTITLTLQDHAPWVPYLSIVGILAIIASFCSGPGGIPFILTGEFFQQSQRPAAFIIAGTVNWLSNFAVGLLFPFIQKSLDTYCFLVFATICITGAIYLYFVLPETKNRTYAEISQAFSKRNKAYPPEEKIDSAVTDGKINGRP

[2] = target: T2, SLC2A9, Q9NRM0-2
T2 sequence: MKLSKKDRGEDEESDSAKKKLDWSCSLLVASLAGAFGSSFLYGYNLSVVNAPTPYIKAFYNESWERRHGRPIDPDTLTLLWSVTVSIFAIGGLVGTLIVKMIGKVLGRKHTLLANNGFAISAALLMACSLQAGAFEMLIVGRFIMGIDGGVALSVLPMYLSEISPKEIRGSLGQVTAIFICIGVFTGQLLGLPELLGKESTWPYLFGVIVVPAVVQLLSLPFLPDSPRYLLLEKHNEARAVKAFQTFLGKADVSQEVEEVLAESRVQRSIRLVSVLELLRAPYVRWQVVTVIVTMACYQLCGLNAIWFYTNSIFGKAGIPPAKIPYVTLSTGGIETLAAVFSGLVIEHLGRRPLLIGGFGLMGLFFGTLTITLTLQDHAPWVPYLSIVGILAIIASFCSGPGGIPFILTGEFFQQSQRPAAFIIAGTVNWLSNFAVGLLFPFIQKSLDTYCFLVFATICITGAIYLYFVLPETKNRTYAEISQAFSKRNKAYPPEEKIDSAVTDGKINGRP

Row | Substance | effect of a mutation on the interaction [1] | effect of a mutation on the interaction [2]
1 | Integral membrane protein 2B (Homo sapiens) (from UniProt Q9Y287) N170Q | decreasing interaction strength | –
2 | Integral membrane protein 2B (Homo sapiens) (from UniProt Q9Y287) E261A | with no effect | with no effect
